Results as given in publication PMC7363144, “Cryo-electron microscopy structure and potential enzymatic function of human six-transmembrane epithelial antigen of the prostate 1 (STEAP1)” (The Journal of Biological Chemistry, 2020).

Biological target: T1, six-transmembrane epithelial antigen of the prostate 1 (STEAP1), full-length human, C-terminal Strep-tag (Homo sapiens)
T1 construct: human STEAP1, UniProtKB Q9UHE8, full length; codon-optimized DNA from GeneArt; Homotrimer in the cryo-EM structure; in digitonin micelles; The PDB model holds residues 67-312 only; source: HEK293 GnTI- suspension cells, purified in digitonin (Strep-Tactin resin, SEC)
Assay: SEC; 25 µl STEAP1 (0.28 mg/ml) mixed with a ~2-fold molar excess of Fab variant (35 µl at 0.5 mg/ml), several hours, Superdex 200 increase 3.2/300, 20 mM Tris pH 7.8, 200 mM NaCl, 0.08% digitonin; heme absorbance at 412 nm and tryptophan fluorescence
Details: both partners purified

T1 sequence (Q9UHE8 2-339): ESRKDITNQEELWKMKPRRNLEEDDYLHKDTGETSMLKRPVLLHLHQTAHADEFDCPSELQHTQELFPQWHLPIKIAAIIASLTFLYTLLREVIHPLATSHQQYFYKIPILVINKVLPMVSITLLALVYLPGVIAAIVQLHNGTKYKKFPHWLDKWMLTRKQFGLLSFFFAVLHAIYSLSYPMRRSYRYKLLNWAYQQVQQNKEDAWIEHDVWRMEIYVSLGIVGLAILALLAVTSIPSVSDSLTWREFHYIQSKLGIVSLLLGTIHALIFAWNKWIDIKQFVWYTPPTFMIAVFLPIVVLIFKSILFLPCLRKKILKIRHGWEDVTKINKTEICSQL

Row | binding result | Binder
1 | no binding | Fab120.545 mutant R32LE (Fab, V domains shown, as the heavy chain of m2; variable region in PDB 6Y9B; as the light chain of m2 with R32E; variable region of the parent in PDB 6Y9B; source: gift from Genmab BV, produced at the authors' request) VH: DVQVQESGPGLVKPSQSLSLTCTVTGYSITSDYAWNWIRQFPGNKLEWMGYISNSGSTSYNPSLKSRISITRDTSKNQFFLQLISVTTEDTATYYCARERNYDYDDYYYAMDYWGQGTTLTVSA VL: DIVMSQSPSSLAVSVGEKVTMSCKSSQSLLYESNQKNYLAWYQQKPGQSPKLLIYWASTRESGVPDRFTGSGSGTDFTLTISSVKAEDLAVYYCQQYYNYPRTFGGGTKLEIK
2 | no binding | Fab120.545 mutant N99LD (Fab, V domains shown, as the heavy chain of m2; variable region in PDB 6Y9B; as the light chain of m2 with N99D; variable region of the parent in PDB 6Y9B; source: gift from Genmab BV, produced at the authors' request) VH: DVQVQESGPGLVKPSQSLSLTCTVTGYSITSDYAWNWIRQFPGNKLEWMGYISNSGSTSYNPSLKSRISITRDTSKNQFFLQLISVTTEDTATYYCARERNYDYDDYYYAMDYWGQGTTLTVSA VL: DIVMSQSPSSLAVSVGEKVTMSCKSSQSLLYRSNQKNYLAWYQQKPGQSPKLLIYWASTRESGVPDRFTGSGSGTDFTLTISSVKAEDLAVYYCQQYYDYPRTFGGGTKLEIK
3 | no binding | Fab120.545 mutant D103HN,D105HN,D106HN (Fab, V domains shown, as the heavy chain of m2 with D103N, D105N, D106N; variable region of the parent in PDB 6Y9B; as the light chain of m2; variable region in PDB 6Y9B; also called Fab-NNN; source: gift from Genmab BV, produced at the authors' request) VH: DVQVQESGPGLVKPSQSLSLTCTVTGYSITSDYAWNWIRQFPGNKLEWMGYISNSGSTSYNPSLKSRISITRDTSKNQFFLQLISVTTEDTATYYCARERNYNYNNYYYAMDYWGQGTTLTVSA VL: DIVMSQSPSSLAVSVGEKVTMSCKSSQSLLYRSNQKNYLAWYQQKPGQSPKLLIYWASTRESGVPDRFTGSGSGTDFTLTISSVKAEDLAVYYCQQYYNYPRTFGGGTKLEIK
4 | no binding | Fab120.545 mutant D103HA,D105HA,D106HA (Fab, V domains shown, as the heavy chain of m2 with D103A, D105A, D106A; variable region of the parent in PDB 6Y9B; as the light chain of m2; variable region in PDB 6Y9B; also called Fab-AAA; source: gift from Genmab BV, produced at the authors' request) VH: DVQVQESGPGLVKPSQSLSLTCTVTGYSITSDYAWNWIRQFPGNKLEWMGYISNSGSTSYNPSLKSRISITRDTSKNQFFLQLISVTTEDTATYYCARERNYAYAAYYYAMDYWGQGTTLTVSA VL: DIVMSQSPSSLAVSVGEKVTMSCKSSQSLLYRSNQKNYLAWYQQKPGQSPKLLIYWASTRESGVPDRFTGSGSGTDFTLTISSVKAEDLAVYYCQQYYNYPRTFGGGTKLEIK
